Positions count from the first letter of the chain named. Each block holds one binder with its values, some of them ahead of it.
What was measured:
[1] = molecular target: T1, recombinant murine TLR2/Fc chimera, R&D Systems cat no: 1530-TR (murine, UniProt Q9QUN7 25-587); assay: ELISA: TLR coated at 2 ug/ml, periplasmic extract of the clone, anti-VHH detection, OD against no-Nanobody control
T1 construct: Bought Fc chimera, coated on ELISA plates; also called mTLR2/Fc; mTLR2; not shown: Fc part of the chimera
T1 sequence (looked up): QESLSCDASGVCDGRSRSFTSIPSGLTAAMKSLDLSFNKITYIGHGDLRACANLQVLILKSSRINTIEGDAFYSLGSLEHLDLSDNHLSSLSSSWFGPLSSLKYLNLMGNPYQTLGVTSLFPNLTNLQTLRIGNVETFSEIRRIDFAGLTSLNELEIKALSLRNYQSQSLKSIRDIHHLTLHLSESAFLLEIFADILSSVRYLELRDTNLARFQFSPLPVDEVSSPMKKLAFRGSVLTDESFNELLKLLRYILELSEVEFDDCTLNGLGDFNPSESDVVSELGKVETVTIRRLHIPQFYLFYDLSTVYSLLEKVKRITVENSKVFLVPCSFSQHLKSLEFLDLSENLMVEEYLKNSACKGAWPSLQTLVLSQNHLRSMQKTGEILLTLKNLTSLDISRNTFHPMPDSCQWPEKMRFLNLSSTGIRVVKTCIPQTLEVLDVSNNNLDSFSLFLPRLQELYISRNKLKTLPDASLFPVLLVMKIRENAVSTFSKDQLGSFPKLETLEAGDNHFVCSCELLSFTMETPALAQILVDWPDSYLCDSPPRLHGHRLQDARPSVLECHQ

[2] = molecular target: T2, recombinant human TLR4/MD2 (rhTLR4/MD2), R&D Systems cat no: 3146-TM/CF (human, UniProt O00206 24-631; Q9Y6Y9 17-160, limits assumed); assay: as above
T2 construct: Bought protein, coated on ELISA plates
T2 sequence (O00206 24-631 limits assumed, chain 1 of 2): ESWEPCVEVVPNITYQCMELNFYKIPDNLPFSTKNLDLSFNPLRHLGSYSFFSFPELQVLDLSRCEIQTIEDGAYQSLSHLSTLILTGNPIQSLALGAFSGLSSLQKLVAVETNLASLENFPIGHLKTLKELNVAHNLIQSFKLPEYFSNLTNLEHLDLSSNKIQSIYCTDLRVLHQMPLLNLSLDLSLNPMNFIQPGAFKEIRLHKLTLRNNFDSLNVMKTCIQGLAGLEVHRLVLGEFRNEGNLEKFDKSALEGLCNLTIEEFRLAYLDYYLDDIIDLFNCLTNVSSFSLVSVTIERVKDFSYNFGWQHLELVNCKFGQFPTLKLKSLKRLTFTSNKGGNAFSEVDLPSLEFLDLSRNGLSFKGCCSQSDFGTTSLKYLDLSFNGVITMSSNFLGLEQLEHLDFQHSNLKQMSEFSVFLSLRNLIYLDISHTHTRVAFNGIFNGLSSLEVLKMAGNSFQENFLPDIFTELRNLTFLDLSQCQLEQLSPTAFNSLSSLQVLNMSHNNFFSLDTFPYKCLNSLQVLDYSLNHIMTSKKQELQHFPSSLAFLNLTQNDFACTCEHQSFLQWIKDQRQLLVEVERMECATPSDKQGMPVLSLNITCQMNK
T2 sequence (Q9Y6Y9 17-160 limits assumed, chain 2 of 2): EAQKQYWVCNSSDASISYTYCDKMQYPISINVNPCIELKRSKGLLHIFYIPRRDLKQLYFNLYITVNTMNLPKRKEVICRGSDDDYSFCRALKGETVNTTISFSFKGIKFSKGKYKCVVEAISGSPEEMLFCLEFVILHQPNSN

binding result [1]: binds
B1: 161-F4 (VHH)
VHH: EVQLVESGGGLVQPGGSLRLSCAASGSIGSGDAMGWYRQPPGKQRERVATITSGGLTVYTESVKGRFAISRDNAKNTVYLQMNSLKPEDTAVYYCNTVNYRVGWGPGTQVTVSS
notes: not shown: C-terminal c-myc tag and (His)6 tag coded by the vector

binding result [2]: binds
B2: 107-H8 (VHH)
VHH: EVQLVESGGGLVQAGGSLRLSCVASRGTLNNNPMAMGWFRRAPGKEREFVASIDWSGRSTYYADSVKGRFTISRDNAKNTVWLQINSLEPEDTSVYFCASRREYYTGISIVESDYPYWGQGTQVTVSS
notes: as for B1

binding result [1]: binds
B3: 172-C1 (VHH)
VHH: EVQLVESGGGLVQAGGSLRLSCAASELAFDFDGYNFAWVRQAPGREREFVSVINRSGGSTDYASSVKGRFTISRDNAKNTVYLQMTSLEPEDTAVYYCAAGPYYTGSSDRYDYWGQGTPVTVSS
notes: as for B1

binding result [1]: binds
B4: 172-F7 (VHH)
VHH: EVQLVESGGGLVQAGGSLRLSCAASGRTFSRYVMGWFRQAPGKEREFVAVINWSGGSTDYSTYVKGRFTIFRDNAKNTVFLEMTSLEPEDTAVYYCAAGEYYTGDSSRYDHWGQGTPVTVSS
notes: as for B1

binding result [1]: binds
B5: 161-E1 (VHH)
VHH: B4 VHH with V12A, A49S, W53R
notes: as for B1

binding result [1]: binds
B6: 172-B7 (VHH)
VHH: B4 VHH with R31S, A49S, W53R, S61A, T62S, Y63S, F71S, F80Y, D105I, H111Y
notes: as for B1

binding result [1]: binds
B7: 172-G3 (VHH)
VHH: B4 VHH with E6K, V33I, W53R, S61A, T62S, Y63S, F71S, F80Y, D105S
notes: as for B1

binding result [1]: binds
B8: 172-A12 (VHH)
VHH: B4 VHH with G35S, Y63S, F80Y, M83T, P88L, D105A
notes: as for B1

binding result [1]: binds
B9: 172-H4 (VHH)
VHH: EVQLVESGGGLVQAGGSLRLSCAASGRTFDSYAMGWFRQAPGKEREFVAAIGYSGTYDADSVKGRFTISRDNAKKTTVYLQMNNLKPEDTAVYYCAAAGTFSTTVGTTTSHYDYWGQGTQVTVSS
notes: as for B1

binding result [1]: binds
B10: 172-E5 (VHH)
VHH: EVQLVESGGGLVQTGGSLRLSCAASGSTFSNAVMGWFRQAPGKEREFVARITWNGGSTYYGDSAKGRFTISRDNAKTTAYLLMNSLQPEDTANYFCAARMRPVFYSTSGQESFYDYWGQGTQVTVSS
notes: as for B1

binding result [1]: binds
B11: 161-A3 (VHH)
VHH: B10 VHH with N31K, N74I, A75G, Y105S, T107S, G109V
notes: as for B1

binding result [1]: binds
B12: 172-F11 (VHH)
VHH: B10 VHH with N31R, T58A, F104S, Y105D, T107S
notes: as for B1

binding result [1]: binds
B13: 161-H1 (VHH)
VHH: EVQLVESGGGLVQAGGSLRLSCAPSRRTFSTYVMGWFRQAPGMEREFVSAISWSSGSTRYADSVKGRFTISRDSVKNTMYLQMNSLKPEDTAVYYCAAGASFGSIFWESAREYNYWGQGTQVTVSS
notes: as for B1

binding result [1]: binds
B14: 172-B3 (VHH)
VHH: VQLVKSGGGGLVQAGGSLRLSCAASGRTFSRYVMGWFRQAPGKEREFVAVINRSGGSTDYAASVKGRFTIARDNAKNTVYLEMTSLEPEDTAVYYCAAGEYYTGSSSRYDHWGQGTPVTVSS
notes: as for B1

binding result [1]: binds
B15: 161-A11 (VHH)
VHH: EVQLVESGGGLVQAEGSLRLSCVASGRTFDTYVMGWFRQAPGKEREFVAAINRSGVTDYPDSATGRFTISRENAKNTVYLQGTSLKPEDTGVYYCAARKAFYYGTSSYPNDYAHWGQGTQVTVSS
notes: as for B1

binding result [2]: binds
B16: 133-A1 (VHH)
VHH: EVQLVESGGGLVQAGESLRLSCVASGISISTEVMGWYRQAPGKQGESVAIIKTDGSTYYPDSVKGRFAISRDNAKNTVYLAMNSLKLEDTGVYYCIIAGRGRGQGTQVTVSS
notes: as for B1

binding result [2]: binds
B17: 133-H4 (VHH)
VHH: B16 VHH with E6K, A81Q, I96V, A98P, R102P
notes: as for B1

binding result [2]: binds
B18: 133-H5 (VHH)
VHH: B16 VHH with A24V, E32K, A81Q, L87V, A98T, R100W
notes: as for B1

binding result [2]: binds
B19: 107-A7 (VHH)
VHH: EVQLVESGGGLVQAGGSLRLSCVASGRTLSTVNMGWFRQAPGKERDIVARISGSSVSTYYAESVRGRFTISRDNAKNTVYLQMNSLRPEDTGVYYCVADSPGGRSYEYWGQGTQVTVSS
notes: as for B1

binding result [2]: binds
B20: 107-G9 (VHH)
VHH: B19 VHH with G53P, A61S, R65K, G92A
notes: as for B1

binding result [2]: binds
B21: 107-A9 (VHH)
VHH: B19 VHH with V32Y, V79M, S85N, G92A, S100G
notes: as for B1

binding result [2]: binds
B22: 133-H11 (VHH)
VHH: B19 VHH with T28S, V56I, G92A, Y108F
notes: as for B1

binding result [2]: binds
B23: 107-C12 (VHH)
VHH: B19 VHH with V56I, G92A
notes: as for B1

binding result [2]: binds
B24: 107-E9 (VHH)
VHH: B19 VHH with T31S, G53P, R65K
notes: as for B1

binding result [1]: binds
B25: 161-H4 (VHH)
VHH: EVQLVESGGGLVQAGGSLRLSCAASGRPDSSYFMGWFRQAPGKEFEFVSRINWIGSNTAYADSVKGRFTISRDNAKNTVYLQMNSLKPEDTAVYFCVATTINSFNSGNYKDPRLWTYWAQGTQVTVSS
notes: as for B1

binding result [1]: binds
B26: 161-F2 (VHH)
VHH: EVQLVESGGGLVQAEGSLRLSCVASGPTFDTYVMGWFRQAPGKEREFVAAINRSGSTDYPDYWDSAKGRFTISRDNAKNTVYLQMTSLRPEDTGVYYCAARKTFYFGTSSYPNDYAYWGQGTQVTVSS
notes: as for B1

binding result [1]: binds
B27: 172-C6 (VHH)
VHH: EVQLVESGGGVVQAGGSLSLSCAASGRTLSVYAMGWFRQAPGKEREFVATISVSGVYTYYTDSVKARFTISRDNAKNTVYLQMNSLKPEDTAVYYCAAGSKPTFLGSSYDYWGQGTQVTVSS
notes: as for B1

binding result [2]: binds
B28: 133-H9 (VHH)
VHH: EVQLVESGGGLVQPGGSLRLSCAASGSIFSINDMGWFRQAPGKEREHVALIRIKDGSIYYADSVKGRFTISRDNAKNTVYLQMNSLKPEDTAVYYCAAKTGTSFVYWGQGTQVTVSS
notes: as for B1

binding result [2]: binds
B29: 107-H7 (VHH)
VHH: B28 VHH with K87R, A97G
notes: as for B1

binding result [2]: binds
B30: 133-E12 (VHH)
VHH: B28 VHH with N32S, K76E, K87R, A97G
notes: as for B1

binding result [2]: binds
B31: 133-F8 (VHH)
VHH: B28 VHH with I53F, N77S
notes: as for B1

binding result [2]: binds
B32: 133-F12 (VHH)
VHH: B28 VHH with I53F, Y106C
notes: as for B1

binding result [1]: binds
B33: 172-A1 (VHH)
VHH: EVQLVESGGGLVQAGGSLRLSCTASGRTFSSFVMGWFRQAPGKEREFVAYITLRGGDSPLYADSVKDRFTISRDIAKNLVYLQMNSLKPEDTAVYYCAARYSGGSVYRNDYAYWGQGTQVTVSS
notes: as for B1

binding result [1]: binds
B34: 161-E2 (VHH)
VHH: EVQLVESGGGLVQAGGSLRLSCAASGRAFSSYVMGWFRQTPGKEREFVSVINWSGGSTDYSSSVKGRFTISRDNAKNTVYLQMTSLEPEDTAVYYCAAGQYYTGRSDRYDYWGQGTPVTVSS
notes: as for B1

binding result [1]: binds
B35: 161-C9 (VHH)
VHH: EVQLVESGGGLVQAEGSLRLSCVASGTHVMGWFRQASGKEREFVAAINRSGSTDYPDSADSAKGRFTISRDNAKNTVYLQMTSLKPEDTGVYYCAARKAFYFGTSSYPSDYAYWGQGTQVTVSS
notes: as for B1

binding result [1]: binds
B36: 172-C9 (VHH)
VHH: EVQLVESGGGLVQAGGSLRLSCAASGRTYSIDSMAWFRQAPGKERQFLGSILWSDDSTNYADSVKGRFTISRDNAKNTMYLQMGSLKPEDTAVYYCRSWDGRQVYWGQGTQVTVSS
notes: as for B1

From WO2009138494A2 (dated 2009)
